Patent US20170015742A1 (published 2017)

Molecular target: T1, mouse VEGF (PR-1578904) (mouse, UniProt Q00731 205-392)
T1 construct: also called mVEGF164
T1 chain: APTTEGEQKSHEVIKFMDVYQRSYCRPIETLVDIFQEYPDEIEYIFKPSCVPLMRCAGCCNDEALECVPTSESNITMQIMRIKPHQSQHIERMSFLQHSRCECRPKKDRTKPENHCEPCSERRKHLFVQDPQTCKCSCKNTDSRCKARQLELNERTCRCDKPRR
Test: SPR (Biacore), mAb captured by anti-human Fc, antigen injected
Procedure: Unreacted moieties on the biosensor surface were blocked with ethanolamine. For kinetic analysis, rate equations derived from the 1:1 Langmuir binding model were fitted simultaneously to multiple antigen injections (using global fit analysis) with the use of Scrubber 2 (BioLogic Software), Biacore Biaevaluation 4.0.1 software or Biacore T100 Evaluation software. Purified antibodies or DVD-Ig molecules were diluted in running buffer for capture across goat anti-human Fc reaction surfaces. Antibodies or DVD-Ig molecules to be captured as a ligand (1 μg/ml) were injected over reaction matrices at a flow rate of 10 μl/minute. During the assay, all measurements were referenced against the capture surface alone (i.e., with no captured antibody or DVD-Ig molecule). […] The equilibrium dissociation constant KD (M) of the reaction between antibodies and the target antigen was then calculated from the kinetic rate constants by the following formula: KD=Koff/Kₒₙ. Binding was recorded as a function of time and kinetic rate constants were calculated. In this assay, on-rates as fast as 10⁶M⁻¹s⁻¹ and off-rates as slow as 10⁻⁶ s⁻¹ could be measured.

B1: AB014 (Avastin), PR-1545939 (antibody, V domains shown)
VH: EVQLVESGGGLVQPGGSLRLSCAASGYTFTNYGMNWVRQAPGKGLEWVGWINTYTGEPTYAADFKRRFTFSLDTSKSTAYLQMNSLRAEDTAVYYCAKYPHYYGSSHWYFDVWGQGTLVTVSS
VL: DIQMTQSPSSLSASVGDRVTITCSASQDISNYLNWYQQKPGKAPKVLIYFTSSLHSGVPSRFSGSGSGTDFTLTISSLQPEDFATYYCQQYSTVPWTFGQGTKVEIK
notes: Anti-VEGF-A mAb
B1: no binding.
